# Experimental data: PMC4577212, “X-Ray Structure and Mutagenesis Studies of the N-Isopropylammelide Isopropylaminohydrolase, AtzC” (PLoS ONE, 2015)
# Substrate: Nc1nc(O)nc(O)n1
# Assay: purified protein
# Conditions: 200 mM sodium phosphate pH 7.5, glycerol, 301 K, 28.0 °C
protein,measurement,value
AtzC (N-isopropylammelide isopropylaminohydrolase) (Pseudomonas sp. ADP) (protein) MSKDFDLIIRNAYLSEKDSVYDIGIVGDRIIKIEAKIEGTVKDEIDAKGNLVSPGFVDAHTHMDKSFTSTGERLPKFWSRPYTRDAAIEDGLKYYKNATHEEIKRHVIEHAHMQVLHGTLYTRTHVDVDSVAKTKAVEAVLEAKEELKDLIDIQVVAFAQSGFFVDLESESLIRKSLDMGCDLVGGVDPATRENNVEGSLDLCFKLAKEYDVDIDYHIHDIGTVGVYSINRLAQKTIENGYKGRVTTSHAWCFADAPSEWLDEAIPLYKDSGMKFVTCFSSTPPTMPVIKLLEAGINLGCASDNIRDFWVPFGNGDMVQGALIETQRLELKTNRDLGLIWKMITSEGARVLGIEKNYGIEVGKKADLVVLNSLSPQWAIIDQAKRLCVIKNGRIIVKDEVIVA,Km,3.1 ± 0.2 mM
same,kcat,26.2 ± 1.8 s⁻¹
same,kcat/Km,8500 M⁻¹ s⁻¹
